The results in this text go back to patent publication US11001846B2, “Aptamers, nucleic acid molecules, polynucleotides, synthetic antibodies compositions for detecting PRRS viruses and treating PRRS virus infection” (AEROVIRUS TECHNOLOGIES INC., priority 2015, dated 2021).

Data set [1] deals with LHVA-93-3 PRRS virus. Kind of data set: Light microscopy and immunofluorescence of infected cells. The class given is cell-based, PRRSV.
In data set [2] the test system is type 2 PRRSV. Particulars: after MTT screening of 10 candidates.
From the text: Using various tetrazolium (MTT) colorimetric assay procedures^[xxxvi], these aptamers have been “screened” to identify the ones having the highest and fastest binding capabilities for detection and therapeutics purposes for both types of PRRSV. It should be pointed out that the aptamer having the quickest binding efficiency but not necessarily the highest binding strength is the most suitable one for the biosensor.
For data set [3], the system named is type 2 PRRSV (VR2332, LHVA-93-3, NVSL-93-2335). Kind of data set: Strain-specific neutralization (FIG. 11), type 2 strains. It counts as cell-based.
The subject of data set [4] is LHVA-93-3 PRRS virus. Kind of data set: In-vivo protection of swine from PRRSV infection (Example 3). The method, then:
Swine—SPF American Yorkshire swine at the age of 10-12 weeks were purchased. The selected swine were all exempt of PRRSV, SIV, and Mycoplasma Hyopneumoniae.
(§1) Swine were inoculated intranasally with sub-lethal infectious fluid containing 40TCID50/ml PRRS virus (LHVA-93-3) with or without 2.5 nmole A505 aptamer for different time intervals. Pig body weight was monitored for 2 weeks. Viral titer in the lungs was determined by the CPE titration method (OIE Terrestrial Manual—May 2015, Chapter 2.8.7—Porcine Reproductive and Respiratory Syndrome, section 1.1.3). Other pigs were sacrificed 6 days following viral inoculation and lungs were removed and homogenized in PBS 0.1% BSA (10% w/v). Following homogenization, samples were centrifuged to remove debris and stored at −80° C.
(§2) The cells/viruses were incubated for 2-5 days and observe daily for a CPE. At day 2, seed macrophages in new microtitre plates. Fifty (50) μl of the supernatants were transferred from the plates of the first passage to the corresponding wells of the freshly seeded plates (second passage). The wells were incubated for 2-5 days and observed daily for a CPE. The results of the CPE assays were presented as log TCID50.
For lung histology, pigs were sacrificed at day 7 and lungs were removed into 10% neutral buffered formalin (pH 7.0). Lungs were then sectioned and stained with haemotoxylin and eosin.
The antiviral properties of A505 were determined in vivo prior to and following viral infection. Briefly, the swine were divided into four groups designated ‘untreated’, ‘0 day’, ‘+1 day’ and ‘+2 day’. Each pig was challenged with 40 TCID50/ml of LHVA-93-3 PRRS viruses. Pigs in ‘0 day’ group were inoculated with a mixture of the virus and 2.5 μmole/ml A505, intranasally (i.n.). Pigs in ‘+1 day’ and ‘+2 day’ groups were inoculated with 2.5 μmole/ml A505, in 1 day or 2 days following virus infection, respectively. PRRS infection was monitored by three parameters, including (i) body weight loss during 14 days following virus treatment; (ii) lung virus titre; (iii) histological examination of lungs—sections were taken 7 days following virus inoculation.

In data set [5] the test system is various PRRSV strains. Kind of data set: In-vivo protection of swine against various PRRSV strains (Example 4). The conditions noted are these: 15 ug/Kg, treatment on the day of infection; each strain 40TCID50/ml; FIG. 13a. The protocol:
as §1, §2
Were implemented as described hereinabove. A dose of 15 ug/Kg of A505 was used.

Data set [6] relates to type-1 Lelystad PRRS virus. Kind of data set: Strain-specific neutralization (FIG. 11), type 1 strain. It counts as cell-based, PRRSV. The protocol:
In Vitro Viral Protection Prior to Viral Infection PAMs or MARC-145 cells were plated on 96 well plates (7×10^4/well) 24 hours prior to the experiment. Each well was washed twice with DPBS prior to treating the cells with various amounts of A505 (12.5 to 2000 pmole) at 37° C. for the indicated time points. Cells were then washed twice with DPBS and infected with 500 TCID50 LHVA-3 (or NVSL or VR-2332 or Lelystad) for 1 hour in enriched HBSS. Following incubation, cells were transferred to growth medium and incubated at 37° C. for 72 hours. Thereafter an MTT assay was implemented as described.

Data set [7] concerns NVSL PRRS virus. Kind of data set: MTT assay, in vitro protection of PAMs or MARC-145 cells from NVSL infection. The class given is cell-based, PRRSV. The conditions noted are these: 500 pmole, compared to non-infected MARC-145 cells, FIG. 9b. The method, then: PAMs or MARC-145 cells were plated in 96 well plates (7×10^4/well) one day prior to the assay. Cells were washed twice with Dulbecco's phosphate buffered saline (DPBS) prior to an one (1) hour incubation with Hank's balanced salt solution (HBSS) supplemented with 25 mM HEPES and 4 mM sodium bicarbonate (pH 7.3) including 500TCID50 of LHVA-3 or 500TCID50 of NVSL in the presence or absence of the indicated aptamer concentration. Following infection, cells were incubated in growth medium at 37° C. for 72 hours. MTT assay was performed by adding 4 mg/ml MTT (3-[4,5-Dimethylthiazol-2-yl]-2,5-diphenyltetrazolium bromide dissolved in PBS to the cell cultures and incubation at 37° C. for 3 hours. Plates were then centrifuged at 800×g for 10 min. Supernatants were aspirated and the formazan dye was dissolved in 150 μl/well of isopropyl alcohol, and O.D. values were determined with an ELISA reader at 570 nm.
In Vitro Viral Protection Prior to Viral Infection PAMs or MARC-145 cells were plated on 96 well plates (7×10^4/well) 24 hours prior to the experiment. Each well was washed twice with DPBS prior to treating the cells with various amounts of A505 (12.5 to 2000 pmole) at 37° C. for the indicated time points. Cells were then washed twice with DPBS and infected with 500 TCID50 LHVA-3 (or NVSL or VR-2332 or Lelystad) for 1 hour in enriched HBSS. […]
For orientation: Tetrazolium assays rely on reduction of a dye to a coloured formazan, in cell work by metabolically active cells.

B1: A505: ssDNA aptamer binding type 2 PRRSV M-S-S-GP5 complex (nucleic acid)
DNA: GGGCGACCCTGAAGAGTTTGTAATCTGCGATTTTAAAGTTGAGTCGTCGCGAAACGGTGAAAGCCGTAGGTTGCCC
modifications: DNA, backbone and methylation of C not given here
B1: the “cell morphology of infected cells, light microscopy” value in data set [1] (MARC-145 cells, virus in the presence of aptamer, FIG. 10b) is “destruction was inhibited and the cell morphology was largely conserved”. Moreover, the “viral presence by immunofluorescence” value in data set [1] (two days incubation with virus and aptamer, FIG. 10e) is on record as “almost entirely prevented”. The “binding capabilities from biosensing and therapeutic perspectives” value in data set [2] is recorded as “highest binding capabilities”. Also, in data set [3], the “neutralization of PRRS virus strains” value is reported as “only the type 2 PRRSV have been neutralized”. For the same molecule, in data set [4] (14 days, treatment groups +2 day, 0 day, +1 day vs control group, FIG. 12a), the body weight loss entry was “significantly lower weight loss and enhanced recovery”. The “protection equivalent to lung virus titer difference” value in data set [4] ('0 day' group) is recorded as “over 99%”. For the same molecule, the “difference in lung virus titer compared to the non-treated group” value in data set [4] ('0 day' group, 2.5 μmole/ml A505 i.n. mixed with virus, 40 TCID50/ml, FIG. 12b) is reported as “more than 2 log”. In addition, the “protection in lung virus titer, treatment after infection” value in data set [4] ('+1 day' and '+2 day' groups) was “Further protection”. In addition, in data set [4] (all three A505-treated groups, six days after infection, p<0.05, FIG. 12b), the “reduction of viral load in the lungs vs infected group” value is “statistically significant”. Further, the “lung histology, inflamed areas” value in data set [4] (sections 7 days after virus inoculation, intranasal A505) was “reduces the inflamed areas in lungs”. The “prevention of infection (lung virus titer) by various strains” value in data set [5] is “efficient in preventing the infection by all tested strains of PRRSV”. Besides, the “effect on type-1 Lelystad PRRS virus” value in data set [6] is recorded as “has not effect”. Besides, the “protection against infection of the cells” value in data set [7] was approximately 70%.
